{
  "source": "patent US5681715",
  "key": {"[1]": {"molecular_target": "LipA lipase of Pseudomonas cepacia DSM 3959 produced in E. coli from pAHE2 or pAHE10 (inclusion bodies) (Pseudomonas cepacia DSM 3959) (UniProt P22088)"}, "[2]": {"molecular_target": "LipA lipase of Pseudomonas cepacia DSM 3959 produced in E. coli from pAHE2 or pAHE10 (inclusion bodies) (Pseudomonas cepacia DSM 3959) (UniProt P22088)", "remark": "listed apart in the source"}, "[3]": {"molecular_target": "intracellular prelipase from P. cepacia DSM 3959 (Pseudomonas cepacia DSM 3959) (UniProt P22088)"}, "[4]": {"molecular_target": "mature, extracellular lipase from P. cepacia DSM 3959 (Pseudomonas cepacia DSM 3959) (UniProt P22088)"}, "[5]": {"molecular_target": "mature LipA produced in E. coli without signal peptide (pAHE19, pAHE22) (Pseudomonas cepacia DSM 3959) (UniProt P22088)"}, "[6]": {"molecular_target": "LipD, lipase from P. cepacia DSM 3401 (Pseudomonas cepacia DSM 3401)"}, "[7]": {"molecular_target": "LipD, lipase from P. cepacia DSM 3401 (Pseudomonas cepacia DSM 3401)", "remark": "listed apart in the source"}, "[8]": {"molecular_target": "LipA-LipD hybrid lipase (pAHE16, pAHE23) (Pseudomonas cepacia DSM 3959; Pseudomonas cepacia DSM 3401) (UniProt P22088)"}},
  "data": [
    {"substance": "LimA, Pseudomonas cepacia lipase modulator (chaperone molecule) from P. cepacia DSM 3959 (from UniProt P22089)", "values": [
      {"measurement": "No of LU recovered after denaturation and renaturation (pH stat), inclusion bodies undiluted", "setting": "[1]", "result": 16, "unit": "LU"},
      {"measurement": "No of lipase units recovered after denaturation and renaturation, inclusion bodies diluted 1:10", "setting": "[2]", "result": 7.8, "unit": "LU"},
      {"measurement": "LU after renaturation", "setting": "[3]", "result": 0, "unit": "LU"},
      {"measurement": "LU after renaturation", "setting": "[4]", "result": 1.3, "unit": "LU"},
      {"measurement": "LU after renaturation", "setting": "[5]", "result": 0.75, "unit": "LU"},
      {"measurement": "No of LU recovered (+UREA) and % recovery after denaturation and renaturation, first preparation", "setting": "[6]", "result": 0.45, "unit": "LU"},
      {"measurement": "LU after renaturation and % recovery, new preparation", "setting": "[7]", "result": 56, "unit": "LU"},
      {"measurement": "LU after renaturation", "setting": "[8]", "result": 1, "unit": "LU"}
    ]}
  ]
}
